Assay results reported in publication doi:10.1101/2025.03.07.641123.

Columns and labels:
[1] = target: TW1 (DtxR-Geminin coiled-coil-SpyCatcher) (UniProt P0DJL7); assay: mass photometry
[2] = target: TW2 (TrpR-Geminin coiled-coil-SpyTag-Geminin coiled-coil-MetJ) (UniProt P0A881); assay: mass photometry

Substance: TW1 (DtxR-Geminin coiled-coil-SpyCatcher) (from UniProt P0DJL7 2-121; O75496 110-145)
- stoichiometry N [1]: 2

Substance: TW2 (TrpR-Geminin coiled-coil-SpyTag-Geminin coiled-coil-MetJ) (from UniProt P0A881 2-108; O75496 110-145; O75496 110-145; P0A8U6 2-105)
- stoichiometry N [2]: 2
